Source: patent US20250339531A1, “DUX4 POLYPEPTIDES AND NUCLEIC ACIDS FOR TREATING INFLAMMATORY AND AUTOIMMUNE CONDITIONS” (Fred Hutchinson Cancer Center, priority 2021, published 2025)

Test system: proteins that co-immunoprecipitated with DUX4-CTD constructs expressed in MB135 myoblasts
Test: LC-MS of proteins co-immunoprecipitated with DUX4-CTD (Table 1) and western validation
Assay type: binding, human
Parameters: key to 4. mL1dL2 + Dox + IFNG / 4. + IFNG mix / 4. longCTD + Dox + IFNG / 3. + IFNg + Dox longCTD / 3. + Dox longCTD / 3. + IFNG longCTD: peptide-spectrum matches (PSMs) per protein
Conditions: kind of count not given; for 4. + IFNG mix: LC-MS value per protein co-immunoprecipitated from MB135 myoblasts, + IFNG mix sample (no Dox); for 4. mL1dL2 + Dox + IFNG: LC-MS value per protein co-immunoprecipitated with DUX4-CTD construct mL1dL2 in MB135 myoblasts
In short: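 FLAG-tagged DUX4-CTD expressed in doxycycline-induced MB135 myoblasts, some also IFNG-treated; nuclear lysates in pH 7.4 NP-40 IP buffer were pre-cleared, then anti-FLAG immunoprecipitated 3 h at 4 °C. For LC-MS, FLAG-peptide elution, in-gel trypsin digest, Orbitrap analysis; proteins with ≥2 PSMs in both experiments categorised and ranked by total PSMs.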

| Molecule | 4. + IFNG mix | 4. mL1dL2 + Dox + IFNG |
| --- | --- | --- |
| GNAI2 (protein) GCTVSAEDKAAAERSKMIDKNLREDGEKAAREVKLLLLGAGESGKSTIVKQMKIIHEDGYSEEECRQYRAVVYSNTIQSIMAIVKAMGNLQIDFADPSRADDARQLFALSCTAEEQGVLPDDLSGVIRRLWADHGVQACFGRSREYQLNDSAAYYLNDLERIAQSDYIPTQQDVLRTRVKTTGIVETHFTFKDLHFKMFDVGGQRSERKKWIHCFEGVTAIIFCVALSAYDLVLAEDEEMNRMHESMKLFDSICNNKWFTDTSIILFLNKKDLFEEKITHSPLTICFPEYTGANKYDEAASYIQSKFEDLNKRKDTKEIYTHFTCATDTKNVQFVFDAVTDVIIKNNLKDCGLF | 7 | 10 |
| ATP5F1A (protein) QKTGTAEMSSILEERILGADTSVDLEETGRVLSIGDGIARVHGLRNVQAEEMVEFSSGLKGMSLNLEPDNVGVVVFGNDKLIKEGDIVKRTGAIVDVPVGEELLGRVVDALGNAIDGKGPIGSKTRRRVGLKAPGIIPRISVREPMQTGIKAVDSLVPIGRGQRELIIGDRQTGKTSIAIDTIINQKRFNDGSDEKKKLYCIYVAIGQKRSTVAQLVKRLTDADAMKYTIVVSATASDAAPLQYLAPYSGCSMGEYFRDNGKHALIIYDDLSKQAVAYRQMSLLLRRPPGREAYPGDVFYLHSRLLERAAKMNDAFGGGSLTALPVIETQAGDVSAYIPTNVISITDGQIFLETELFYKGIRPAINVGLSVSRVGSAAQTRAMKQVAGTMKLELAQYREVAAFAQFGSDLDAATQQLLSRGVRLTELLKQGQYSPMAIEEQVAVIYAGVRGYLDKLEPSKITKFENAFLSHVVSQHQALLGTIRADGKISEQSDAKLKEIVTNFLAGFEA | 6 | 4 |
| AHCYL1 (protein) SMPDAMPLPGVGEELKQAKEIEDAEKYSFMATVTKAPKKQIQFADDMQEFTKFPTKTGRRSLSRSISQSSTDSYSSAASYTDSSDDEVSPREKQQTNSKGSSNFCVKNIKQAEFGRREIEIAEQDMSALISLRKRAQGEKPLAGAKIVGCTHITAQTAVLIETLCALGAQCRWSACNIYSTQNEVAAALAEAGVAVFAWKGESEDDFWWCIDRCVNMDGWQANMILDDGGDLTHWVYKKYPNVFKKIRGIVEESVTGVHRLYQLSKAGKLCVPAMNVNDSVTKQKFDNLYCCRESILDGLKRTTDVMFGGKQVVVCGYGEVGKGCCAALKALGAIVYITEIDPICALQACMDGFRVVKLNEVIRQVDVVITCTGNKNVVTREHLDRMKNSCIVCNMGHSNTEIDVTSLRTPELTWERVRSQVDHVIWPDGKRVVLLAEGRLLNLSCSTVPTFVLSITATTQALALIELYNAPEGRYKQDVYLLPKKMDEYVASLHLPSFDAHLTELTDDQAKYLGLNKNGPFKPNYYRY |  | 1 |
| RBBP7 (protein) ASKEMFEDTVEERVINEEYKIWKKNTPFLYDLVMTHALQWPSLTVQWLPEVTKPEGKDYALHWLVLGTHTSDEQNHLVVARVHIPNDDAQFDASHCDSDKGEFGGFGSVTGKIECEIKINHEGEVNRARYMPQNPHIIATKTPSSDVLVFDYTKHPAKPDPSGECNPDLRLRGHQKEGYGLSWNSNLSGHLLSASDDHTVCLWDINAGPKEGKIVDAKAIFTGHSAVVEDVAWHLLHESLFGSVADDQKLMIWDTRSNTTSKPSHLVDAHTAEVNCLSFNPYSEFILATGSADKTVALWDLRNLKLKLHTFESHKDEIFQVHWSPHNETILASSGTDRRLNVWDLSKIGEEQSAEDAEDGPPELLFIHGGHTAKISDFSWNPNEPWVICSVSEDNIMQIWQMAENIYNDEESDVTTSELEGQGS |  | 16 |
| AP2M1 (protein) MIGGLFIYNHKGEVLISRVYRDDIGSRQAADSAVFSSSGPFPGEWLEANRRNAVDAFRVNVIHARQQVRSPVTNIARTSFFHVKRSNIWLAAVTKQNVNAAMVFEFLYKMCDVMAAYFGKISEENIKNNFVLIYELLDEILDFGYPQNSETGALKTFITQQGIKSQHQTKEEQSQITSQVTGQIGWRREGIKYRRNELFLDVLESVNLLMSPQGQVLSAHVSGRVVMKSYLSGMPECKFGMNDKIVIEKQGKGTADETSKSGKQSIAIDDCTFHQCVRLSKFDSERSISFIPPDGEFELMRYRTTKDIILPFRVIPLVREVGRTKLEVKVVIKSNFKPSLLAQKIEVRIPTPLNTSGVQVICMKGKAKYKASENAIVWKIKRMAGMKESQISAEIELLPTNDKKKWARPPISMNFEVPFAPSGLKVRYLKVFEPKLNYSDHDVIKWVRYIGRSGIYETRC |  | 1 |
| JSRP1 (protein) MSMTTRAWEELDGGLGSCQALEDHSALAETQEDRASATPRLADSGSVPHDSQVAEGPSVDTRPKKMEKEPAARGTPGTGKERLKAGASPRSVPARKKAQTAPPLQPPPPPPALSEELPWGDLSLNKCLVLASLVALLGSAFQLCRDAVPGEAALQARVPEPWVPPSSAPREPSSPLPKFEAQAPPSAPPAPRAEAEVRPKIPGSREAAENDEEEPGEATGEAVREDRVTLADRGPKERPRREGKPRKEKPRKEERPKKERPRKEERPRAAREPREALPQRWESREGGHRPWARDSRDAEPRKKQAWVSPRRPDEEQRPGSRQKLRAGKGRD |  | 1 |
| IGKV2-40 (protein, UniProt A0A087WW87 20-121, looked up) Immunoglobulin kappa variable …: EDIVMTQTPLSLPVTPGEPASISCRSSQSLLDSDDGNTYLDWYLQKPGQSPQLLIYTLSYRASGVPDRFSGSGSGTDFTLKISRVEAEDVGVYYCMQRIEFP | 5 | 1 |
| ATP2B1 (protein) GDMANNSVAYSGVKNSLKEANHDGDFGITLAELRALMELRSTDALRKIQESYGDVYGICTKLKTSPNEGLSGNPADLERREAVFGKNFIPPKKPKTFLQLVWEALQDVTLIILEIAAIVSLGLSFYQPPEGDNALCGEVSVGEEEGEGETGWIEGAAILLSVVCVVLVTAFNDWSKEKQFRGLQSRIEQEQKFTVIRGGQVIQIPVADITVGDIAQVKYGDLLPADGILIQGNDLKIDESSLTGESDHVKKSLDKDPLLLSGTHVMEGSGRMVVTAVGVNSQTGIIFTLLGAGGEEEEKKDEKKKEKKNKKQDGAIENRNKAKAQDGAAMEMQPLKSEEGGDGDEKDKKKANLPKKEKSVLQGKLTKLAVQIGKAGLLMSAITVIILVLYFVIDTFWVQKRPWLAECTPIYIQYFVKFFIIGVTVLVVAVPEGLPLAVTISLAYSVKKMMKDNNLVRHLDACETMGNATAICSDKTGTLTMNRMTVVQAYINEKHYKKVPEPEAIPPNILSYLVTGISVNCAYTSKILPPEKEGGLPRHVGNKTECALLGLLLDLKRDYQDVRNEIPEEALYKVYTFNSVRKSMSTVLKNSDGSYRIFSKGASEIILKKCFKILSANGEAKVFRPRDRDDIVKTVIEPMASEGLRTICLAFRDFPAGEPEPEWDNENDIVTGLTCIAVVGIEDPVRPEVPDAIKKCQRAGITVRMVTGDNINTARAIATKCGILHPGEDFLCLEGKDFNRRIRNEKGEIEQERIDKIWPKLRVLARSSPTDKHTLVKGIIDSTVSDQRQVVAVTGDGTNDGPALKKADVGFAMGIAGTDVAKEASDIILTDDNFTSIVKAVMWGRNVYDSISKFLQFQLTVNVVAVIVAFTGACITQDSPLKAVQMLWVNLIMDTLASLALATEPPTESLLLRKPYGRNKPLISRTMMKNILGHAFYQLVVVFTLLFAGEKFFDIDSGRNAPLHAPPSEHYTIVFNTFVLMQLFNEINARKIHGERNVFEGIFNNAIFCTIVLGTFVVQIIIVQFGGKPFSCSELSIEQWLWSIFLGMGTLLWGQLISTIPTSRLKFLKEAGHGTQKEEIPEEELAEDVEEIDHAERELRRGQILWFRGLNRIQTQIRVVNAFRSSLYEGLEKPESRSSIHNFMTHPEFRIEDSEPHIPLIDDTDAEDDAPTKRNSSPPPSPNKNNNAVDSGIHLTIEMNKSATSSSPGSPLHSLETSL | 10 | 11 |
| NCEH1 (protein) MRSSCVLLTALVALAAYYVYIPLPGSVSDPWKLMLLDATFRGAQQVSNLIHYLGLSHHLLALNFIIVSFGKKSAWSSAQVKVTDTDFDGVEVRVFEGPPKPEEPLKRSVVYIHGGGWALASAKIRYYDELCTAMAEELNAVIVSIEYRLVPKVYFPEQIHDVVRATKYFLKPEVLQKYMVDPGRICISGDSAGGNLAAALGQQFTQDASLKNKLKLQALIYPVLQALDFNTPSYQQNVNTPILPRYVMVKYWVDYFKGNYDFVQAMIVNNHTSLDVEEAAAVRARLNWTSLLPASFTKNYKPVVQTTGNARIVQELPQLLDARSAPLIADQAVLQLLPKTYILTCEHDVLRDDGIMYAKRLESAGVEVTLDHFEDGFHGCMIFTSWPTNFSVGIRTRNSYIKWLDQNL |  | 1 |
| PLOD2 (protein) ADSEKPSSIPTDKLLVITVATKESDGFHRFMQSAKYFNYTVKVLGQGEEWRGGDGINSIGGGQKVRLMKEVMEHYADQDDLVVMFTECFDVIFAGGPEEVLKKFQKANHKVVFAADGILWPDKRLADKYPVVHIGKRYLNSGGFIGYAPYVNRIVQQWNLQDNDDDQLFYTKVYIDPLKREAINITLDHKCKIFQTLNGAVDEVVLKFENGKARAKNTFYETLPVAINGNGPTKILLNYFGNYVPNSWTQDNGCTLCEFDTVDLSAVDVHPNVSIGVFIEQPTPFLPRFLDILLTLDYPKEALKLFIHNKEVYHEKDIKVFFDKAKHEIKTIKIVGPEENLSQAEARNMGMDFCRQDEKCDYYFSVDADVVLTNPRTLKILIEQNRKIIAPLVTRHGKLWSNFWGALSPDGYYARSEDYVDIVQGNRVGVWNVPYMANVYLIKGKTLRSEMNERNYFVRDKLDPDMALCRNAREMGVFMYISNRHEFGRLLSTANYNTSHYNNDLWQIFENPVDWKEKYINRDYSKIFTENIVEQPCPDVFWFPIFSEKACDELVEEMEHYGKWSGGKHHDSRISGGYENVPTDDIHMKQVDLENVWLHFIREFIAPVTLKVFAGYYTKGFALLNFVVKYSPERQRSLRPHHDASTFTINIALNNVGEDFQGGGCKFLRYNCSIESPRKGWSFMHPGRLTHLHEGLPVKNGTRYIAVSFIDP | 7 | 8 |
